Measurements as given in patent publication US20250215412A1 (NOVOZYMES A S, published 2025).
Numbering of substitutions follows the chain as printed. Names and notes keep the numbering of the source.

Molecular target: T1, Chryseobacterium sp-62563 deamidase polypeptide (second polypeptide, deamidase domain), wildtype (Chryseobacterium sp-62563)
T1 sequence: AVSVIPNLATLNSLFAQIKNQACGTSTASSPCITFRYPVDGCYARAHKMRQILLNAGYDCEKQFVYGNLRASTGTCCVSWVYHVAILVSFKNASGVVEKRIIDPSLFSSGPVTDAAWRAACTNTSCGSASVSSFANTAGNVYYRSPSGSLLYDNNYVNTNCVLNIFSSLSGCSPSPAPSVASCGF
Test: cell-based or functional assay

B1: Chryseobacterium sp-62563 propeptide F95I (protein)
chain: NQDPNLVAKESNETAMKDFGKTVPVGIEKEDGKFKISFMVTAQPYEIKDSKENAAYISMIKTAVENETPIHVFLKANTNEIAKVDKATDDDIRYIKSVFTKEVKEENRK
B1 was tested. Which Relative activity of maturated deamidase (% initial rate) did it give?
The Relative activity of maturated deamidase (% initial rate) was 58.

B2: Chryseobacterium sp-62563 propeptide F73E (protein)
chain: B1 chain with F73E, I95F
B2 was tested. Which Relative activity of maturated deamidase (% initial rate) did it give?
Its Relative activity of maturated deamidase (% initial rate) is 28.

B3: Chryseobacterium sp-62563 propeptide I92M (protein)
chain: B1 chain with I92M, I95F
Which Relative activity of maturated deamidase (% initial rate) does the source give for B3 here?
The Relative activity of maturated deamidase (% initial rate) was 38.

B4: Chryseobacterium sp-62563 propeptide E67L (protein)
chain: B1 chain with E67L, I95F
B4 was tested. Which Relative activity of maturated deamidase (% initial rate) did it give?
Its Relative activity of maturated deamidase (% initial rate) is 55.

B5: Chryseobacterium sp-62563 propeptide D91M (protein)
chain: B1 chain with D91M, I95F
With B5 as the binder, how does the Relative activity of maturated deamidase (% initial rate) read?
The Relative activity of maturated deamidase (% initial rate) was 31.

B6: Chryseobacterium sp-62563 propeptide E67H (protein)
chain: B1 chain with E67H, I95F
B6 was tested. Which Relative activity of maturated deamidase (% initial rate) did it give?
Its Relative activity of maturated deamidase (% initial rate) is 78.

B7: Chryseobacterium sp-62563 propeptide I92G (protein)
chain: B1 chain with I92G, I95F
How did the Relative activity of maturated deamidase (% initial rate) turn out when B7 was run?
Its Relative activity of maturated deamidase (% initial rate) is 69.

B8: Chryseobacterium sp-62563 propeptide E67F (protein)
chain: B1 chain with E67F, I95F
How did the Relative activity of maturated deamidase (% initial rate) turn out when B8 was run?
The Relative activity of maturated deamidase (% initial rate) was 46.

B9: Chryseobacterium sp-62563 propeptide E67I (protein)
chain: B1 chain with E67I, I95F
Which Relative activity of maturated deamidase (% initial rate) does the source give for B9 here?
The Relative activity of maturated deamidase (% initial rate) was 31.

B10: Chryseobacterium sp-62563 propeptide F95A (protein)
chain: B1 chain with I95A
B10 was tested. Which Relative activity of maturated deamidase (% initial rate) did it give?
Its Relative activity of maturated deamidase (% initial rate) is > 100.

B11: Chryseobacterium sp-62563 propeptide E67D (protein)
chain: B1 chain with E67D, I95F
B11 was tested. Which Relative activity of maturated deamidase (% initial rate) did it give?
Its Relative activity of maturated deamidase (% initial rate) is 69.

B12: Chryseobacterium sp-62563 propeptide E67K (protein)
chain: B1 chain with E67K, I95F
For B12, which Relative activity of maturated deamidase (% initial rate) is on record?
The Relative activity of maturated deamidase (% initial rate) was > 100.

B13: Chryseobacterium sp-62563 propeptide T88H (protein)
chain: B1 chain with T88H, I95F
Which Relative activity of maturated deamidase (% initial rate) does the source give for B13 here?
Its Relative activity of maturated deamidase (% initial rate) is 41.

B14: Chryseobacterium sp-62563 propeptide E67A (protein)
chain: B1 chain with E67A, I95F
B14 was tested. Which Relative activity of maturated deamidase (% initial rate) did it give?
Its Relative activity of maturated deamidase (% initial rate) is 46.

B15: Chryseobacterium sp-62563 propeptide I92A (protein)
chain: B1 chain with I92A, I95F
How did the Relative activity of maturated deamidase (% initial rate) turn out when B15 was run?
The Relative activity of maturated deamidase (% initial rate) was 31.

B16: Chryseobacterium sp-62563 propeptide T88G (protein)
chain: B1 chain with T88G, I95F
Which Relative activity of maturated deamidase (% initial rate) does the source give for B16 here?
Its Relative activity of maturated deamidase (% initial rate) is 66.

B17: Chryseobacterium sp-62563 propeptide T88I (protein)
chain: B1 chain with T88I, I95F
For B17, which Relative activity of maturated deamidase (% initial rate) is on record?
The Relative activity of maturated deamidase (% initial rate) was 52.

B18: Chryseobacterium sp-62563 propeptide E67V (protein)
chain: B1 chain with E67V, I95F
B18 was tested. Which Relative activity of maturated deamidase (% initial rate) did it give?
Its Relative activity of maturated deamidase (% initial rate) is 27.

B19: Chryseobacterium sp-62563 propeptide T88K (protein)
chain: B1 chain with T88K, I95F
How did the Relative activity of maturated deamidase (% initial rate) turn out when B19 was run?
The Relative activity of maturated deamidase (% initial rate) was 33.

B20: Chryseobacterium sp-62563 propeptide E67M (protein)
chain: B1 chain with E67M, I95F
For B20, which Relative activity of maturated deamidase (% initial rate) is on record?
The Relative activity of maturated deamidase (% initial rate) was 37.

B21: Chryseobacterium sp-62563 propeptide T88F (protein)
chain: B1 chain with T88F, I95F
For B21, which Relative activity of maturated deamidase (% initial rate) is on record?
The Relative activity of maturated deamidase (% initial rate) was 28.

B22: Chryseobacterium sp-62563 propeptide I92L (protein)
chain: B1 chain with I92L, I95F
With B22 as the binder, how does the Relative activity of maturated deamidase (% initial rate) read?
Its Relative activity of maturated deamidase (% initial rate) is 31.

B23: Chryseobacterium sp-62563 propeptide E65P (protein)
chain: B1 chain with E65P, I95F
How did the Relative activity of maturated deamidase (% initial rate) turn out when B23 was run?
The Relative activity of maturated deamidase (% initial rate) was 30.

B24: Chryseobacterium sp-62563 propeptide E67S (protein)
chain: B1 chain with E67S, I95F
Which Relative activity of maturated deamidase (% initial rate) does the source give for B24 here?
The Relative activity of maturated deamidase (% initial rate) was 42.

B25: Chryseobacterium sp-62563 propeptide E67C (protein)
chain: B1 chain with E67C, I95F
How did the Relative activity of maturated deamidase (% initial rate) turn out when B25 was run?
Its Relative activity of maturated deamidase (% initial rate) is 46.

B26: Chryseobacterium sp-62563 propeptide Y94R (protein)
chain: B1 chain with Y94R, I95F
B26 was tested. Which Relative activity of maturated deamidase (% initial rate) did it give?
Its Relative activity of maturated deamidase (% initial rate) is 52.

B27: Chryseobacterium sp-62563 propeptide E67W (protein)
chain: B1 chain with E67W, I95F
How did the Relative activity of maturated deamidase (% initial rate) turn out when B27 was run?
The Relative activity of maturated deamidase (% initial rate) was > 100.

B28: Chryseobacterium sp-62563 propeptide D91H (protein)
chain: B1 chain with D91H, I95F
For B28, which Relative activity of maturated deamidase (% initial rate) is on record?
Its Relative activity of maturated deamidase (% initial rate) is 64.

B29: Chryseobacterium sp-62563 propeptide T88V (protein)
chain: B1 chain with T88V, I95F
B29 was tested. Which Relative activity of maturated deamidase (% initial rate) did it give?
Its Relative activity of maturated deamidase (% initial rate) is 51.

B30: Chryseobacterium sp-62563 propeptide I92K (protein)
chain: B1 chain with I92K, I95F
B30 was tested. Which Relative activity of maturated deamidase (% initial rate) did it give?
The Relative activity of maturated deamidase (% initial rate) was 32.

B31: Chryseobacterium sp-62563 propeptide F95H (protein)
chain: B1 chain with I95H
B31 was tested. Which Relative activity of maturated deamidase (% initial rate) did it give?
Its Relative activity of maturated deamidase (% initial rate) is 76.

B32: Chryseobacterium sp-62563 propeptide I92S (protein)
chain: B1 chain with I92S, I95F
With B32 as the binder, how does the Relative activity of maturated deamidase (% initial rate) read?
Its Relative activity of maturated deamidase (% initial rate) is 40.

B33: Chryseobacterium sp-62563 propeptide D91G (protein)
chain: B1 chain with D91G, I95F
With B33 as the binder, how does the Relative activity of maturated deamidase (% initial rate) read?
Its Relative activity of maturated deamidase (% initial rate) is 56.

B34: Chryseobacterium sp-62563 propeptide E67R (protein)
chain: B1 chain with E67R, I95F
With B34 as the binder, how does the Relative activity of maturated deamidase (% initial rate) read?
The Relative activity of maturated deamidase (% initial rate) was 95.

B35: Chryseobacterium sp-62563 propeptide D91Q (protein)
chain: B1 chain with D91Q, I95F
How did the Relative activity of maturated deamidase (% initial rate) turn out when B35 was run?
The Relative activity of maturated deamidase (% initial rate) was 28.

B36: Chryseobacterium sp-62563 propeptide Y94K (protein)
chain: B1 chain with Y94K, I95F
With B36 as the binder, how does the Relative activity of maturated deamidase (% initial rate) read?
Its Relative activity of maturated deamidase (% initial rate) is 49.

B37: Chryseobacterium sp-62563 propeptide E67G (protein)
chain: B1 chain with E67G, I95F
B37 was tested. Which Relative activity of maturated deamidase (% initial rate) did it give?
The Relative activity of maturated deamidase (% initial rate) was 54.

B38: Chryseobacterium sp-62563 propeptide E67T (protein)
chain: B1 chain with E67T, I95F
B38 was tested. Which Relative activity of maturated deamidase (% initial rate) did it give?
Its Relative activity of maturated deamidase (% initial rate) is 40.

B39: Chryseobacterium sp-62563 propeptide D91S (protein)
chain: B1 chain with D91S, I95F
B39 was tested. Which Relative activity of maturated deamidase (% initial rate) did it give?
The Relative activity of maturated deamidase (% initial rate) was 48.

B40: Chryseobacterium sp-62563 propeptide T88R (protein)
chain: B1 chain with T88R, I95F
Which Relative activity of maturated deamidase (% initial rate) does the source give for B40 here?
The Relative activity of maturated deamidase (% initial rate) was 46.
